What all share (type): biochemical, Saccharomyces cerevisiae
Substrate in series [1]: N[C@@H](CS)C(=O)O
Put plainly: CBS H2S production assay (AzMC fluorometric), tScCBS. Particulars: other: tScCBS, Cys + Hcy, pH 8.6, 37.0 °C. The protocol:
CBS H2S production assay. H2S-producing activity of CBS, utilizing Cys and Hcy, was determined using a fluorometric assay employing the H2S-selective fluorescent probe 7-azido-4-methylcoumarin (AzMC) as described previously. The reaction mixture in a total volume of 200 µL contained 50 mM Tris–HCl pH 8.6, 5 μM PLP, 2 mM Hcy, 10 μM AzMC and 500 ng tScCBS or HsCBS. The plate was incubated for 10 min at 37°C and the enzymatic activity was triggered by adding 0–50 mM Cys. The fluorescence of the mixtures at 450 nm (excited at 365 nm) was followed for 2 h at 37°C. All measurements were performed in triplicates using Tecan Infinite 200 PRO microplate reader. Kinetic data were analyzed using GraphPad Prism software.

Substrate in series [2]: N[C@@H](CO)C(=O)O
Put plainly: CBL-LDH coupled-coupled CBS assay, tScCBS. As to conditions: other: tScCBS, substrate varied with 2 mM Hcy, pH 8.9. On the procedure: (§1) CBS coupled-coupled assay. CBS canonical activity utilizing Ser and Hcy was determined using cystathionine beta-lyase (CBL) and lactate-dehydrogenase (LDH) coupled-coupled assay as described previously with a few modifications. Native L-LDH from rabbit muscle was purchased from Sigma (catalog no. L2500) and recombinant CBL was purchased from Creative Enzymes (catalog no. NATE-1146). In a final volume of 150 µL, the reaction mixture contained 50 mM Tris–HCl pH 8.9, 20 µM PLP, 500 µM NADH, 1.3 µM LDH, 0.1 µM CBL, 0–20 mM Ser (or 0–50 mM Cys) and 500 ng of tScCBS or HsCBS. Assays with HsCBS were carried out in the absence or presence of 500 µM CBS allosteric activator S-adenosylmethionine (SAM). The reaction was triggered by the addition of 2 mM Hcy and the oxidation of NADH to NAD^+ was followed by monitoring the decrease in absorbance at 340 nm over time (ε340 = 6220 M^−1.cm^−1). […] All measurements were performed in triplicates using Tecan Infinite 200 PRO microplate reader. Kinetic data were analyzed using GraphPad Prism software.

Substrate in series [3]: N[C@@H](CS)C(=O)O
Put plainly: CBL-LDH coupled-coupled CBS assay, tScCBS. Particulars: other: tScCBS, substrate varied with 2 mM Hcy, pH 8.9. On the procedure: as §1

B1: tScCBS (Saccharomyces cerevisiae S288C) (protein)
chain: MTKSEQQADSRHNVIDLVGNTPLIALKKLPKALGIKPQIYAKLELYNPGGSIKDRIAKSMVEEAEASGRIHPSRSTLIEPTSGNTGIGLALIGAIKGYRTIITLPEKMSNEKVSVLKALGAEIIRTPTAAAWDSPESHIGVAKKLEKEIPGAVILDQYNNMMNPEAHYFGTGREIQRQLEDLNLFDNLRAVVAGAGTGGTISGISKYLKEQNDKIQIVGADPFGSILAQPENLNKTDITDYKVEGIGYDFVPQVLDRKLIDVWYKTDDKPSFKYARQLISNEGVLVGGSSGSAFTAVVKYCEDHPELTEDDVIVAIFPDSIRSYLTKFVDDEWLKKNNLWDDDVL
notes: 6xHis (C); made in house
In general, Km refers to the substrate concentration at which the rate is half of its maximum. By kcat is commonly meant the number of substrate molecules converted per active site and unit of time at saturation. Usually kcat/Km stands for the second-order rate constant that governs catalysis at low substrate concentration. A word on the Vmax: it is the rate approached at saturating substrate. Turning to B1, in series [1], the Michaelis constant (Km) was 6700 ± 1500 µM, the kcat worked out at 3.4 ± 0.3 s⁻¹ and the kcat/Km was 510 M⁻¹ s⁻¹. Further, in series [2], the Michaelis constant (Km) came out at 2000 ± 400 µM, the Vmax amounted to 4.18 µmol/min/mg, the turnover number (kcat) came out at 2.7 ± 0.1 s⁻¹ and the kcat/Km was 1340 M⁻¹ s⁻¹. Also, in series [3], the Km was 2500 ± 200 µM, the catalytic constant (kcat) was determined as 1.7 ± 0.1 s⁻¹ and the catalytic efficiency (kcat/Km) came out at 690 M⁻¹ s⁻¹.
